Source: patent US20250092426, “CAS ENDONUCLEASES AND RELATED METHODS” (Flagship Pioneering Innovations VII, LLC, published 2025)

Target: T1, CasEnd-2 (synthetic construct)
T1 chain: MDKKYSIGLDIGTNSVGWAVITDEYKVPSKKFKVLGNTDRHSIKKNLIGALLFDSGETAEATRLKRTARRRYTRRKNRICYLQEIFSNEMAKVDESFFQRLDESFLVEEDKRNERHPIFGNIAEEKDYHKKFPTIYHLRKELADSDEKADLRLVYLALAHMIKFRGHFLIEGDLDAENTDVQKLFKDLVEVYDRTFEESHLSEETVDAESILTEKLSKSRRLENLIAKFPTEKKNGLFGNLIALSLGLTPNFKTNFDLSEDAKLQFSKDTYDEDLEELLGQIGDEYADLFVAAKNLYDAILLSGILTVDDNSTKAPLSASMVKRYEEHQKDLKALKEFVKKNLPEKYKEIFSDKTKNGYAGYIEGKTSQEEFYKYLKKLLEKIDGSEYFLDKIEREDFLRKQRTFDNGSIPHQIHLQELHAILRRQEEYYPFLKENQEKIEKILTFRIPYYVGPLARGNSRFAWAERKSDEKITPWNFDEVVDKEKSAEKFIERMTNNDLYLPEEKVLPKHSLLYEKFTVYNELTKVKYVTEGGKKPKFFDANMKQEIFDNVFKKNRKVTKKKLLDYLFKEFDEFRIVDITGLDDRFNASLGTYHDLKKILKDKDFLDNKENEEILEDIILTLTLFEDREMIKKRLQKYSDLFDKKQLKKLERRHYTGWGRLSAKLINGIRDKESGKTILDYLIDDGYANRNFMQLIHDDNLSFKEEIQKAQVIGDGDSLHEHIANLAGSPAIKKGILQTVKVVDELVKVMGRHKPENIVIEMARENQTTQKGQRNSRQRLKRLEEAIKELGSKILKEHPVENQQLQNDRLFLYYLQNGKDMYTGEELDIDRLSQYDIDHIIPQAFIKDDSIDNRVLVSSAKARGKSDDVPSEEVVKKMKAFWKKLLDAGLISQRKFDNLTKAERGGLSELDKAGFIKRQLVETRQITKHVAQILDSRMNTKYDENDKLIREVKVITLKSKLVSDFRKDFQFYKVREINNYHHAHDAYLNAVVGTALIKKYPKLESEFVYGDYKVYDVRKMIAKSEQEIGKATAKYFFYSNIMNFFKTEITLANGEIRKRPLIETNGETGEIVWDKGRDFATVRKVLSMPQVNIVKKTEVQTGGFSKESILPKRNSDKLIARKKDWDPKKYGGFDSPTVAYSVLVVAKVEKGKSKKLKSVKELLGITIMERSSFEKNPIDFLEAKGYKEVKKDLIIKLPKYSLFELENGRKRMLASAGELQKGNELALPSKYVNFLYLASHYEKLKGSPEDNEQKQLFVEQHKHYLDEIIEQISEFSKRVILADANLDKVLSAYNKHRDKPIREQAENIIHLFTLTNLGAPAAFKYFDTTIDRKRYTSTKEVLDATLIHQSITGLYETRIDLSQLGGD
Assay: cell_activity; +++; HEK293T; PAM not stated
Method in brief: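 Editing activity was scored as the fraction of GFP+ cells on day 4 by flow cytometry. BFP-expressing HEK293T cells (250,000) received by nucleofection 200 ng plasmid for the RT-Cas fusion protein and 200 ng template RNA plasmid designed to convert BFP to GFP.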

B1: BFP-to-GFP template RNA ; BFP reporter protospacer (ssRNA ; dsDNA)
RNA: GCCGAAGCACUGCACGCCGUGUUUUAGAGCUAGAAAUAGCAAGUUAAAAUAAGGCUAGUCCGUUAUCAACUUGAAAAAGUGGCACCGAGUCGGUGCACCCUGACGUACGGCGUGCAGUGCUU
DNA 1: GCCGAAGCACTGCACGCCGT
DNA 2: ACGGCGTGCAGTGCTTCGGC
- activity: ≥ 100 % of reference
